Measured values from patent US20090202499A1 (University of California, published 2009).
Blank lines part the entries; values can stand above or below the binder they belong to.

Legend:
purified HLA-B*5401 = target: T1, purified HLA-B*5401 (human); experiment: competition radioimmunoassay on purified HLA, radiolabeled standard peptide
T1 construct: Purified MHC class I molecule incubated with human b2m; also called B*54011
Excerpt: (§1) Supertype analysis. […] Under the conditions utilized, where [label]<[MHC] and IC₅₀≧[MHC], the measured IC₅₀ values are reasonable approximations of the true Kd values.

purified HLA-B*0702 [1] = target: T2, purified HLA-B*0702 (human); experiment: competition solid-phase radioimmunoassay on purified HLA-B7, radiolabeled standard peptide
T2 construct: Purified MHC class I molecule incubated with human b2m; complexes captured with W6/32 antibody; also called HLA-B7; immobilized purified HLA-B7 molecule
Excerpt: Next, we assessed the actual binding avidity for HLA-B7 (HLA-B*0702). Two independent assays were used: binding stabilization assay on T2-B7 cells by flow cytometry (12) and a competitive solid-phase radioimmunoassay on immobilized purified HLA-B7 molecule (35).

purified HLA-B*0801 = target: T3, purified HLA-B*0801 (human); experiment: competition radioimmunoassay on purified HLA, radiolabeled standard peptide
T3 construct: Purified MHC class I molecule incubated with human b2m; not officially part of the HLA-B7 supertype
Excerpt: as §1

purified HLA-B*5101 = target: T4, purified HLA-B*5101 (human); experiment: as above
T4 construct: Purified MHC class I molecule incubated with human b2m
Excerpt: as §1

purified HLA-B*5301 = target: T5, purified HLA-B*5301 (human); experiment: as above
T5 construct: Purified MHC class I molecule incubated with human b2m
Excerpt: as §1

purified HLA-B*3501 = target: T6, purified HLA-B*3501 (human); experiment: as above
T6 construct: Purified MHC class I molecule incubated with human b2m
Excerpt: as §1

purified HLA-B*0702 [2] = target: T2, purified HLA-B*0702; experiment: as above
Excerpt: as §1

B1: hTRT peptide p966 (AGRNMRRKL) (peptide)
peptide: AGRNMRRKL
notes: Synthetic 9mer peptide of human telomerase reverse transcriptase
IC50 (purified HLA-B*5401): 34100 nM

B4: hTRT peptide p444 (DPRRLVQLL) (peptide)
peptide: DPRRLVQLL
notes: as for B1
IC50 (purified HLA-B*5401): 21900 nM

B6: hTRT peptide p464 (FVRACLRRL) (peptide)
peptide: FVRACLRRL
notes: as for B1
IC50 (purified HLA-B*0702 [1]): 4.1 nM | IC50 (purified HLA-B*5401): 18800 nM | IC50 (purified HLA-B*0801): 123 nM | IC50 (purified HLA-B*0702 [2]): 4.1 nM

More lines, now with the values ahead:

IC50 (purified HLA-B*0702 [1]): 11 nM | IC50 (purified HLA-B*5401): 19900 nM | IC50 (purified HLA-B*0801): 74 nM | IC50 (purified HLA-B*5101): 1620 nM | IC50 (purified HLA-B*5301): 2.4 nM | IC50 (purified HLA-B*3501): 5 nM | IC50 (purified HLA-B*0702 [2]): 11 nM
B2: hTRT peptide p1123 (LPSDFKTIL) (peptide)
peptide: LPSDFKTIL
notes: as for B1

IC50 (purified HLA-B*5401): 12600 nM
B3: hTRT peptide p342 (RPSFLLSSL) (peptide)
peptide: RPSFLLSSL
notes: as for B1

IC50 (purified HLA-B*0702 [1]): 0.96 nM | IC50 (purified HLA-B*0801): 192 nM | IC50 (purified HLA-B*5301): 120 nM | IC50 (purified HLA-B*0702 [2]): 0.96 nM
B5: hTRT peptide p1107 (LPGTTLTAL) (peptide)
peptide: LPGTTLTAL
notes: as for B1
